T1: extracellular domain of human LEPR with an N-terminal myc-myc tag, GPI-anchored on HEK293 cells (human, UniProt P48357 22-839, GPI anchor at the C-terminus ; A GPI anchor is attached at the C end through a carboxypeptidase M derived peptide. The protein is displayed on HEK293 cells.)
T1 construct: also called HEK293/hLEPR-GPI; Mycx2-hLEPR(Ecto)-GPI
T1 sequence: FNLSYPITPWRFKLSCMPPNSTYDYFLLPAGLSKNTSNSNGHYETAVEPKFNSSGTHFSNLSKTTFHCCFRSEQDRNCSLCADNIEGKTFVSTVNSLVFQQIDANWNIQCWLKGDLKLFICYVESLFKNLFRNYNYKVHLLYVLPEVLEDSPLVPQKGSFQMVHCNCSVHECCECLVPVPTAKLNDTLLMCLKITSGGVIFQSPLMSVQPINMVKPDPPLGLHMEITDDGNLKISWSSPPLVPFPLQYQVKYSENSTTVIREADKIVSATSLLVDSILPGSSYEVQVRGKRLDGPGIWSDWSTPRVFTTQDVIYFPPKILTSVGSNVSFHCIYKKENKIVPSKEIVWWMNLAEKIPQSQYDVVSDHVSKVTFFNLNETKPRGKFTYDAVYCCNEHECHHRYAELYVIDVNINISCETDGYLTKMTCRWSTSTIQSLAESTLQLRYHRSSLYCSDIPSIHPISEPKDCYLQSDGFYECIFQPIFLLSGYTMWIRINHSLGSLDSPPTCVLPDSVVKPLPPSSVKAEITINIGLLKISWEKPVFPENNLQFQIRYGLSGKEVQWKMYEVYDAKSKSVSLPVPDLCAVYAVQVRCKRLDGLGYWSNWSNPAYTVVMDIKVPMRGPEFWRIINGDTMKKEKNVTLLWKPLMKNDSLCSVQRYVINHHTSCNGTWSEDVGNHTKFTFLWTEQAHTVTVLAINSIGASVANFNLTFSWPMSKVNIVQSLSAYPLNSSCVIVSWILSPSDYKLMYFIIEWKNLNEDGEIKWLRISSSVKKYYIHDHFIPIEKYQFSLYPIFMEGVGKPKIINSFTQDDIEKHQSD

T2: human LEPR CRH1 (D1,D2)-MMH (human, UniProt P48357 22-339, limits assumed)
T2 construct: domain: CRH1 (D1,D2); Transiently expressed, captured from supernatant on anti-myc beads
T2 sequence (looked up): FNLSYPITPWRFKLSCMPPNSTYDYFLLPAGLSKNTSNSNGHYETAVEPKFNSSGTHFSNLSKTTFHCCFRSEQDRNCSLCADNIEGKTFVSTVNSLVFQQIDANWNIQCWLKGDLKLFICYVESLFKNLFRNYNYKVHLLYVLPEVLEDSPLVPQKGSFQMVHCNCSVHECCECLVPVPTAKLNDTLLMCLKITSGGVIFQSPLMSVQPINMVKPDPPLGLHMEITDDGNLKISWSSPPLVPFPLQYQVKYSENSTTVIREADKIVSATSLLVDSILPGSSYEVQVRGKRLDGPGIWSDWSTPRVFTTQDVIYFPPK

T3: human LEPR CRH2-MMH (human, UniProt P48357 428-634, limits assumed)
T3 construct: domain: CRH2; Transiently expressed, captured from supernatant on anti-myc beads
T3 sequence (looked up): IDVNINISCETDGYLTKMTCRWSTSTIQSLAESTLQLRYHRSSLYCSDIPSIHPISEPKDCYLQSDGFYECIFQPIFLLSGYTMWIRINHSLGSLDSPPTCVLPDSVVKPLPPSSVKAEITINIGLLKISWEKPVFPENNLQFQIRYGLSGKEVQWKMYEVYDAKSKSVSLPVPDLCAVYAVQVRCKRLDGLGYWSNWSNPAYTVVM

T4: human LEPR FNIII-MMH (human, UniProt P48357 636-839, limits assumed)
T4 construct: domain: FNIII; Transiently expressed, captured from supernatant on anti-myc beads
T4 sequence (looked up): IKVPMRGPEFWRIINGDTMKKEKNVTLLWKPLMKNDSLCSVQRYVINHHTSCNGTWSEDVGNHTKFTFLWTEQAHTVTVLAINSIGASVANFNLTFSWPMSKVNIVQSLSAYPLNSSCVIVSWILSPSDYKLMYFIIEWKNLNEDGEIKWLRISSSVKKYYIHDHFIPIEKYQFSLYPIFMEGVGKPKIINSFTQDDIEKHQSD

B1: H4H18464P2 (antibody, human IgG4, V domains shown)
VH: QVQLVQSGPEVKKPGASVKVSCKGSGYTFSWYGISWIRQAPGHGLEWMGWISASSGNTRFAQKVQGRLTMTTDTSTSTAYMELRSLRSDDTAVYYCARTGTRPFDYWGQGTLVTVSS
VL: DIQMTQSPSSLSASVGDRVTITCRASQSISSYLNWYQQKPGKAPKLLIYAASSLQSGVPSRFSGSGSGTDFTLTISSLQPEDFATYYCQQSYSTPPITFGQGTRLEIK
notes: H4H prefix: human IgG4 Fc
B2: H4H18440P2 (antibody, human IgG4, V domains shown)
VH: QVQLVESGGGMVKPGGSLRLSCAASGFTFSDYYMSWIRQAPGKGLEWISHISITGSTIYYADSVKGRFTISRDNAKNSLYLEMNRLRDEDTAVYYCTRDEPDIVLVRYGMDVWGQGTTVTVSS
VL: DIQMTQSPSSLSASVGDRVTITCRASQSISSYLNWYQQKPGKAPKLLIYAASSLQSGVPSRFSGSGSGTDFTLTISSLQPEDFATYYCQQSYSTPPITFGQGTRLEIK
notes: H4H prefix: human IgG4 Fc
B3: H4H18457P2 (antibody, human IgG4, V domains shown)
VH: EVQLVESGGSVVRPGESLRLSCAASGFTFDDYGMSWVRQAPGKGLEWVSGISWNGGITVYADSVKGRFTVSRDNAKNSLYLQMNSLRAEDTALYHCARARYGGADYWGQGTLVTVSS
VL: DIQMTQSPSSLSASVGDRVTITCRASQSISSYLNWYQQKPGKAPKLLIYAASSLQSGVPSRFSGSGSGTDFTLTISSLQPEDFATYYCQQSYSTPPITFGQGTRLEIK
notes: H4H prefix: human IgG4 Fc
B4: H4H17322P2 (antibody, human IgG4, V domains shown)
VH: QLQLQESGPGLVKPSETLSLTCTVSGASISSSRFYGGWIRQPPGKGLEWIGDIYYSGNTYYNPSLQSRVTISVDTSKNQFSLKLSSVTAADTAVYYCARHLMITFGGLIVEGFDIWGQGTMVTVSS
VL: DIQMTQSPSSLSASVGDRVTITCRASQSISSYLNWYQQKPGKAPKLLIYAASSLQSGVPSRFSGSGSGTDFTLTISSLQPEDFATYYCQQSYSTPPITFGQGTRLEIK
notes: H4H prefix: human IgG4 Fc
B5: H4H18437P2 (antibody, human IgG4, V domains shown)
VH: QVQLVESGGGVVQPGRSLRLSCAASGFTFSSYGIHWVRQAPGKGLEWVAVISYDGNNKYYADSVKGRFTISRDNSKNTLYLQMNSLRAEDTAVYYCAKDLFLEWLFHGMGVWGQGTTVTVSS
VL: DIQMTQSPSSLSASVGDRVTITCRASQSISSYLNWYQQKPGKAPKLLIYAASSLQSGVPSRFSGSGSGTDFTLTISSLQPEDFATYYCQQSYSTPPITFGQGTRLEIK
notes: H4H prefix: human IgG4 Fc
B6: H4H18439P2 (antibody, human IgG4, V domains shown)
VH: QLQLQESGPGLVKPSETLSLTCIVSGGDITSSSYYWNWIRQPPGKGLEWIGNIYYSGSTNYNPSLKSRVTISIDTSKSQFSLKLRSVTAADTAVYYCARLLRYFDWSKGYLDYWGQGTLVTVSS
VL: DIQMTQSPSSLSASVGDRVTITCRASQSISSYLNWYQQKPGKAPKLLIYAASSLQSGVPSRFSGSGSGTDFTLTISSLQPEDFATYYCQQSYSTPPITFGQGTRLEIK
notes: H4H prefix: human IgG4 Fc
B7: H4H18462P2 (antibody, human IgG4, V domains shown)
VH: EVQLVESGGDLVQPGRSLRLSCAASGFTFSSFAMSWVRQAPGRGLEWVSSLSDSGDNTYYADSVKGRFTISRDNSKNTLYLQMNNLRAEDTAVYYCAKDLFSGWLFHGFDVWGQGTMVTVSS
VL: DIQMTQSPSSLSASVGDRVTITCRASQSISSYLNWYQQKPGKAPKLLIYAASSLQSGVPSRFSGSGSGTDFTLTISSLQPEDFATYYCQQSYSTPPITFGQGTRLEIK
notes: H4H prefix: human IgG4 Fc
B8: H4H18466P2 (antibody, human IgG4, V domains shown)
VH: EVQLVESGGGLVQPGGSLRLSCTASGFTFSSYGLHWVRQAPGKGLEYVSSINHNGGSKYYADSVKGRFTISRDNSKNTLFLQMGSLKTEDMAVYYCARDLFLEWLFHGFDIWGQGTMVTVSS
VL: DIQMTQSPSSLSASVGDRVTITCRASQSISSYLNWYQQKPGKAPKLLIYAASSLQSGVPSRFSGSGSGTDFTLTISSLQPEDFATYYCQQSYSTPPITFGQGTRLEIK
notes: H4H prefix: human IgG4 Fc

Columns and labels:
[1] = biological target: T1, extracellular domain of human LEPR with …; test: FACS, 10 nM Ab, HEK293/hLEPR-GPI cells, 1 µM Leptin
Method: For the FACS analysis, HEK293 parental cells and HEK293/hLEPR-GPI cells were dissociated and plated onto 96-well v-bottom plates at 5×10⁵ cells/well in PBS containing 2% FBS (FACS buffer). […] Cells were subsequently fixed using BD CytoFix™ (Becton Dickinson, #554655), filtered, and analyzed on a HyperCyt Flow Cytometer (Beckman Coulter). Unstained and secondary antibody alone controls were also tested for all cell lines. The results were analyzed using ForeCyt (IntelliCyt) and FlowJo version 10 softwares to determine the geometric means of fluorescence for viable cells. The geometric mean of fluorescence for each sample was then normalized to the geometric mean of unstained cells to obtain relative binding per condition referred to as “binding ratios”, and these binding ratios were recorded in Table 14 for each antibody tested.

[2] = biological target: T2, human LEPR CRH1 (D1,D2)-MMH; test: Luminex, myc-captured LEPR protein on beads, Ab 5 µg/mL
Method: (§1) Aliquots of microspheres with immobilized anti-myc monoclonal antibodies, prepared as described above, were added individually to 1 mL of the each of these protein supernatants. The microspheres were gently mixed, incubated for two hours at 25° C., washed twice with 1 mL of DBPS, centrifuged to remove the supernatant and finally resuspended in 1 mL of DPBS buffer. Forty eight μL of anti-myc IgG coupled microspheres from individual reactions with full length human LEPR and with each of the human LEPR domain proteins were withdrawn and mixed together in 3.6 mL of PBS+20 mg/mL BSA+0.05% sodium azide (blocking buffer).
(§2) From this mixed pool, 75 μL of microspheres were plated per well on a 96 well filter plate (Millipore, Cat. No: MSBVN1250) and mixed with 25 μL of individual anti-human LEPR monoclonal antibodies (0.5 or 5 μg/mL), incubated for two hours at 25° C. and then washed twice with 200 μL of DPBS with 0.05% Tween 20 (washing buffer). […] After 30 minutes, the samples were washed twice with 200 μL of washing buffer and resuspended in 150 μL of wash buffer. The Median Fluorescence intensity (MFI) of the microspheres was measured in a Luminex Analyzer.

human LEPR CRH2-MMH = biological target: T3, human LEPR CRH2-MMH; test: as above
Method: as §1, §2

human LEPR FNIII-MMH = biological target: T4, human LEPR FNIII-MMH; test: as above
Method: as §1, §2

Binder | Binding Ratio (normalized to unstained) [1] [fold] | Luminex MFI [2] [MFI] | Luminex MFI (human LEPR CRH2-MMH) [MFI] | Luminex MFI (human LEPR FNIII-MMH) [MFI]
B1 | 3590 | 59 | 24 | 23
B2 | 2560 | 19300 | 17 | 10
B3 | 3110 | 53 | 18 | 1190
B4 |  | 50 | 19700 | 23
B5 |  | 82 | 25 | 1590
B6 | 2480 | 21200 | 16 | 13
B7 | 759 | 5730 | 24 | 581
B8 | 398 | 56 | 17 | 457
